Experimental data reported in PMC10210826.

Molecular target: N-terminal biotinylated tetradecapeptide of the C-terminal portion of the SARS-CoV-2 E protein (SARS-CoV-2)
Test: SPR

Substance: PDZ2 domain of human ZO1 (ZO1-PDZ2 domain) (domain or fragment)
- Kd: 2100 nM
